Assay [1] addresses Egg nucleoplasmin (eNP) from Xenopus laevis (X. laevis) (UniProt P05221). The experiment in a line: AUC; sedimentation equilibrium, Buffer I (0.24 M NaCl), NP 0.3 µM, 4°C, 8000 and 12 000 rpm, fit to a single ideal species.
The target is the same in assay [2]. Description: co-sedimentation; 5–20% sucrose gradient in Buffer I (240 mM NaCl), NP 0.9 µM mixed with histones, 1 h 25°C, 29 000 rpm 22 h 4°C; fractions by A230 and SDS–PAGE.
Assay [3] has the same target. The experiment in a line: native gel or EMSA; 2D electrophoresis (4–16% native PAGE, then 12.5% SDS–PAGE) of the high molecular mass complex and densitometry with known amounts of each protein as standards; Buffer I, 240 mM NaCl. A general note: Mobility shift assays separate free from complexed probe on a gel.

UniProt P05221, sequence (P05221 whole entry): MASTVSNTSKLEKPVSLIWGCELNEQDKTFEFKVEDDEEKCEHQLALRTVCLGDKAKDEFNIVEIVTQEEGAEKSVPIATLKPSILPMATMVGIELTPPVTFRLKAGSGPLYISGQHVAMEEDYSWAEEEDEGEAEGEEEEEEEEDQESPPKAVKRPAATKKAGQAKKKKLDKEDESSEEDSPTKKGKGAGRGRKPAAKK

In assay [1], “Natural source histone octamer from chicken erythrocyte chromatin (from UniProt P70081 1-103) (complex)” displayed a stoichiometry N (eNP pentamers per histone octamer) of 2. The figures for the stoichiometry N (octamer per NP pentamer) in assay [2] and in assay [3] were 0.5 and 0.54, respectively.

Consider “Natural source histones H3-H4 from chicken erythrocyte chromatin (from UniProt P84229 1-136; P70081 1-103) (complex)”, for which the stoichiometry N (H3-H4 dimers per NP pentamer) in assay [3] was found to be 2.1.

The values are drawn from publication PMC3902905.
